Where a chain is given by its changes, count along the chain named.
T1: IRAKM P111A (UniProt Q9Y616 1-596)
T1 construct: also called P111A mutant; P111 mutation
T1 sequence (looked up): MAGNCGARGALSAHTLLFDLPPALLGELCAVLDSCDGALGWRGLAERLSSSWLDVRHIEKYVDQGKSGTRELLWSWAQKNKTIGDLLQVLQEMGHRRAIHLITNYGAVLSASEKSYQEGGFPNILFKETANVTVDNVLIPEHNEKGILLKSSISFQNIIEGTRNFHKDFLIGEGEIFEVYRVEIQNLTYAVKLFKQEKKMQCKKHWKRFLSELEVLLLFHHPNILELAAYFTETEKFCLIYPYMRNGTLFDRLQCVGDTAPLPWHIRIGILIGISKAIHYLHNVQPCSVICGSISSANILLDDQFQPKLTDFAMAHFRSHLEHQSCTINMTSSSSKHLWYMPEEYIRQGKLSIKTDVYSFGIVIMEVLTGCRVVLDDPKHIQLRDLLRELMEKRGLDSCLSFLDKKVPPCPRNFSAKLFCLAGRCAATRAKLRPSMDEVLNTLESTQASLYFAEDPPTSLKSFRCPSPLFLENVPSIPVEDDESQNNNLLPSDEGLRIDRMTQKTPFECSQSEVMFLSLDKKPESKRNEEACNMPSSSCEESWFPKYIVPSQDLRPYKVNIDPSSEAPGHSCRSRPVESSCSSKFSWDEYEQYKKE

T2: IRAKM S110E peptide (IRAKM residues 103-124 with the S110E substitution)
T2 construct: Synthetic peptide; also called IRAKM Ser110E
T2 peptide: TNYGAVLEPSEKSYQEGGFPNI

T3: myc-MKP3 (UniProt Q16828 1-381)
T3 construct: also called MAP kinase phosphatase 3; not shown: myc tag
T3 sequence (looked up): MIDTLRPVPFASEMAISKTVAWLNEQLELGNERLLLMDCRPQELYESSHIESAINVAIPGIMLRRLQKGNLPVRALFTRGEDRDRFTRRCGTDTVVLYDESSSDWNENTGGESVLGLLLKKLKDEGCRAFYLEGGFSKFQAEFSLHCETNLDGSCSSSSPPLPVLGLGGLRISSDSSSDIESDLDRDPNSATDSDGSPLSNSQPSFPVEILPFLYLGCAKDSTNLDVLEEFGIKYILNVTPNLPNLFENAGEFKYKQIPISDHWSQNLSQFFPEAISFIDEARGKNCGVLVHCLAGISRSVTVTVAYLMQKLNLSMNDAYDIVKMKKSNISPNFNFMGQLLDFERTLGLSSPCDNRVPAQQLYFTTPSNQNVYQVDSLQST

T4: IRAKM, overexpressed, from IL-33-treated cells (UniProt Q9Y616 1-596, phosphoserine at 110 (LC-MS/MS of the GST-Pin1-bound protein))
T4 construct: also called WT IRAKM
T4 sequence (looked up): T1 sequence (looked up) with A111P

B1: Pin1, endogenous in DC2.4 cells (enzyme, mouse, UniProt Q9QUR7 1-165, looked up)
chain: MADEEKLPPGWEKRMSRSSGRVYYFNHITNASQWERPSGGSTVGGSSKNGQGEPAKVRCSHLLVKHSQSRRPSSWRQEKITRSKEEALELINGYIQKIKSGEEDFESLASQFSDCSSAKARGDLGPFSRGQMQKPFEDASFALRTGEMSGPVFTDSGIHIILRTE
B2: 15N-labeled Pin1 WW domain (Pin1 residues 1-50) (other, UniProt Q13526 1-50, looked up)
chain: MADEEKLPPGWEKRMSRSSGRVYYFNHITNASQWERPSGNSSSGGKNGQG
modifications: uniformly 15N-labeled
notes: range 1-50; also called 15N-Pin1-WW; 15N-Pin1 WW
B3: Erk1 (enzyme, human, UniProt P27361 1-379, looked up)
chain: MAAAAAQGGGGGEPRRTEGVGPGVPGEVEMVKGQPFDVGPRYTQLQYIGEGAYGMVSSAYDHVRKTRVAIKKISPFEHQTYCQRTLREIQILLRFRHENVIGIRDILRASTLEAMRDVYIVQDLMETDLYKLLKSQQLSNDHICYFLYQILRGLKYIHSANVLHRDLKPSNLLINTTCDLKICDFGLARIADPEHDHTGFLTEYVATRWYRAPEIMLNSKGYTKSIDIWSVGCILAEMLSNRPIFPGKHYLDQLNHILGILGSPSQEDLNCIINMKARNYLQSLPSKTKVAWAKLFPKSDSKALDLLDRMLTFNPNKRITVEEALAHPYLEQYYDPTDEPVAEEPFTFAMELDDLPKERLKELIFQETARFQPGVLEAP
notes: entries are written once for Erk1 and once for Erk2; also called Erk1/2 (member Erk1); total Erk1/2
B4: endogenous Rab2A (HMLE cells) (enzyme, human, UniProt P61019 2-212, looked up)
chain: AYAYLFKYIIIGDTGVGKSCLLLQFTDKRFQPVHDLTIGVEFGARMITIDGKQIKLQIWDTAGQESFRSITRSYYRGAAGALLVYDITRRDTFNHLTTWLEDARQHSNSNMVIMLIGNKSDLESRREVKKEEGEAFAREHGLIFMETSAKTASNVEEAFINTAKEIYEKIQEGVFDINNEANGIKIGPQHAATNATHAGNQGGQQAGGGCC
B5: Flag-Rab2A (enzyme, UniProt P61019 1-212, looked up)
chain: MAYAYLFKYIIIGDTGVGKSCLLLQFTDKRFQPVHDLTIGVEFGARMITIDGKQIKLQIWDTAGQESFRSITRSYYRGAAGALLVYDITRRDTFNHLTTWLEDARQHSNSNMVIMLIGNKSDLESRREVKKEEGEAFAREHGLIFMETSAKTASNVEEAFINTAKEIYEKIQEGVFDINNEANGIKIGPQHAATNATHAGNQGGQQAGGGCC
notes: Expressed in HEK293/293T or HMLE cells; also called Flag-tagged wild-type Rab2A; not shown: Flag tag
B6: GST-Rab2A (wild type) (enzyme, UniProt P61019 1-212, looked up)
chain: B5 chain
notes: also called wild-type GST-Rab2A fusion protein; not shown: GST tag
B7: GST-Rab2A mut1/2 (enzyme, UniProt P61019 1-212, looked up)
chain: B5 chain with K29A, R30A, L37A, I39A
notes: not shown: GST tag
B8: GFP-PPlase (other)
chain: GKNGQGEPARVRCSHLLVKHSQSRRPSSWRQEKITRTKEEALELINGYIQKIKSGEEDFESLASQFSDCSSAKARGDLGAFSRGQMQKPFEDASFALRTGEMSGPVFTDSGIHIILRTE
notes: also called GFP fused the Pin1 peptidyl-prolyl cis-trans isomerase (PPlase) domain; GFP-PPlase domain; not shown: GFP

Experiments:
IRAKM P111A = target: T1, IRAKM P111A; experiment: co-IP with anti-IRAKM antibody from DC2.4 cells stably expressing P111A, western blot for Pin1
[1] = target: T2, IRAKM S110E peptide (IRAKM residues …); experiment: NMR titration, 1H-15N HSQC chemical shift changes
myc-MKP3 = target: T3, myc-MKP3; experiment: competition co-IP: Flag IP of 293T lysates with a constant dose of Flag-Rab2A (competitor) and falling doses of myc-MKP3, western blot for Erk1/2
Erk2 [2] = target: T5, Erk2 (human, UniProt P28482 1-360); experiment: reciprocal co-IP of endogenous proteins from HMLE lysate, western blot; the Erk1/2 strip does not separate Erk1 from Erk2
T5 construct: entries are written once for Erk1 and once for Erk2; also called Erk1/2 (member Erk2); total Erk1/2
T5 sequence (P28482 whole entry): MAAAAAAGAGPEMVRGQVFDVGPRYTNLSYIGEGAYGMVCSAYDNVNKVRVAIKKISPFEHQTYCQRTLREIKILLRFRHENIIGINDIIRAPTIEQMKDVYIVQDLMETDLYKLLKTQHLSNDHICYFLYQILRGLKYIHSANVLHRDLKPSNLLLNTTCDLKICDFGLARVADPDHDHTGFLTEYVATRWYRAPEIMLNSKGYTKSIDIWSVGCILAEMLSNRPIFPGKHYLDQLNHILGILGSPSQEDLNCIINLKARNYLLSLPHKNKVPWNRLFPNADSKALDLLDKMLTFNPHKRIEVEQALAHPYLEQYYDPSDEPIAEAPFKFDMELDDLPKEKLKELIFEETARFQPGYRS

Erk1 [3] = target: B3; experiment: as above
Erk2 [4] = target: T5, Erk2; experiment: Flag co-IP from HEK293 cells transfected with Flag-Rab2A with or without AcMEK1, western blot
[5] = target: T6, p-Erk2 (phosphorylated Erk2) (human, UniProt P28482 2-360, phosphorylated (p-Erk1/2, induced by constitutively active MEK1); sites not given); experiment: as above
T6 construct: also called p-Erk1/2 (member Erk2)
T6 sequence (P28482 2-360 limits assumed): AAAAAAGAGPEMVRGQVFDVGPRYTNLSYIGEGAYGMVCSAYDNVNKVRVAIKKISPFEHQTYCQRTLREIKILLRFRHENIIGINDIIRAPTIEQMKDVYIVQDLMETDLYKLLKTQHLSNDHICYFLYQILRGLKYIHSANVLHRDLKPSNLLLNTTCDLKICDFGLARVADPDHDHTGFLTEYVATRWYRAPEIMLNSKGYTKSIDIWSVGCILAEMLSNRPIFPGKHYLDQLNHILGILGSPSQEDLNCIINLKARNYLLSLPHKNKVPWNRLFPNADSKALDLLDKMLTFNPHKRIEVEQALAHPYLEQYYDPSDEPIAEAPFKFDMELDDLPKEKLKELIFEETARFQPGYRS

Erk1 [6] = target: B3; experiment: as above
[7] = target: T7, p-Erk1 (phosphorylated Erk1) (human, UniProt P27361 2-379, phosphorylated (p-Erk1/2, induced by constitutively active MEK1); sites not given); experiment: as above
T7 construct: also called p-Erk1/2 (member Erk1)

Erk2 [8] = target: T5, Erk2; experiment: GST pull-down of endogenous Erk1/2 from cell lysate, western blot
Erk1 [9] = target: B3; experiment: as above
[10] = target: T4, IRAKM, overexpressed, from …; experiment: co-IP with anti-GFP antibody from IL-33-treated HEK293 cells co-expressing IRAKM, western blot for IRAKM

Binder: B1
binding result (IRAKM P111A): no binding

Binder: B2
Kd [1]: 1510 µM

Binder: B3
binding result (myc-MKP3): binds

Binder: B4
binding result (Erk2 [2]): binds | binding result (Erk1 [3]): binds

Binder: B5
binding result (Erk2 [4]): binds | binding result [5]: binds | binding result (Erk1 [6]): binds | binding result [7]: binds

Binder: B6
binding result (Erk2 [8]): binds | binding result (Erk1 [9]): binds

Binder: B7
binding result (Erk2 [8]): no binding | binding result (Erk1 [9]): no binding

Binder: B8
binding result [10]: no binding
